Measured values as given in patent publication US9981059B2, “Sugar chain-polypeptide complex” (Glytech, Inc., priority 2013, dated 2018).

Key:
[1] = Steel ball loading test of hydrogel property; format: physicochemical; design: key to position of the steel ball / hydrogel state: The state of the steel ball staying near the hydrogel surface was set as ◯; sinking after loading and staying internally was set as Δ; sinking to the bottom of the Durham's tube was set as X; * was added to those where the hydrogel was not uniform and clouding or insoluble matter (precipitate) was observed
Method: Ten mg of the sugar chain-polypeptide complex or 10 mg of the control polypeptide were dissolved in 500 μL of ultrapure water to prepare 2 wt. % polypeptide solutions. […] In doing so, citrate-phosphate buffer (pH 2.0 and 3.5), phosphate buffer (pH 7.4), and phosphate-sodium hydroxide buffer (pH 11.5) were employed as the buffer. The surface of the hydrogel inside the Durham's tube was horizontally placed, left still for 20 minutes under room temperature conditions, and a steel ball (diameter 1.56 mm, weight 16 mg, FUNABE SEIKO Co., Ltd.) was loaded on the hydrogel. After 10 minutes, the position of the steel ball was observed by visual confirmation.
The position of the steel ball inside the Durham's tube was evaluated in 3 grades. The state of the steel ball staying near the hydrogel surface was set as ◯, sinking after loading and staying internally was set as Δ, and sinking to the bottom of the Durham's tube was set as X. In addition, * was added to those where the hydrogel was not uniform and clouding or insoluble matter (precipitate) was observed. A hydrogel where the steel ball stays around the surface (◯) and no clouding or insoluble matter is seen (no *) was thought to be a gel that is transparent and uniform.

[2] = Steel ball loading test of hydrogels comprising rat blood plasma (utility as hemostatic matrix); format: physicochemical; conditions: polypeptide 0.5 wt. %
Method: Aqueous polypeptide solutions were prepared with a method similar to Example 1. Blood was collected from 7 weeks-old Crlj:WI rats with heparin sodium injection (Ajinomoto), and blood plasma was obtained from the supernatant after centrifugation treatment. The aqueous polypeptide solution, blood plasma, and PBS were added to a Durham's tube, and hydrogels was prepared so that the plasma concentration was 5-50% and the polypeptide concentration was 0.5 wt. %. Subsequently, these were left for 20 minutes at room temperature condition, and then steel ball loading tests were carried out with a method similar to Example 1.

[3] = biological target: T1, Bovine Serum Albumin (BSA) (Bos taurus, UniProt P02769); assay: Controlled release capability for acidic protein encapsulated in hydrogel
T1 construct: purchased Life Technologies A13100
T1 sequence (P02769 25-607): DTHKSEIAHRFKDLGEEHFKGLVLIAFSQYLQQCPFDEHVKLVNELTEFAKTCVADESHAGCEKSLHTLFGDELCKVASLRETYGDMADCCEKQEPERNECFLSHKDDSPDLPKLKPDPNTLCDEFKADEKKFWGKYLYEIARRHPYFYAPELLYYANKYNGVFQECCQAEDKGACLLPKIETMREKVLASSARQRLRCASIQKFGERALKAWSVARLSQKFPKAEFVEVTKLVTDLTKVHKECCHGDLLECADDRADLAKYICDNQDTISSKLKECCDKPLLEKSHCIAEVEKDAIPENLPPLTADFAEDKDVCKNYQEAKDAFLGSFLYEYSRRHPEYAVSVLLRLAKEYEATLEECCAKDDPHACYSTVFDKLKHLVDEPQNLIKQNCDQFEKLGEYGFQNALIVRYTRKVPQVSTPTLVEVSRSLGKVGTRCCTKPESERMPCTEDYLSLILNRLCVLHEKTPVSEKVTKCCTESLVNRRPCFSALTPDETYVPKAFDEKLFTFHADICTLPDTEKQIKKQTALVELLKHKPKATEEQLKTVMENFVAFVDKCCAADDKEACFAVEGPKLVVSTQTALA
Method: A phosphate buffer (pH 7.4) was employed as the buffer. Moreover, Bovine Serum Albumin (BSA) fluorescently labeled with Alexa Fluor™ 488 (A13100, Life Technologies) was employed as the acidic protein to be encapsulated into the hydrogel.
The components were added to the tube so that the buffer salt concentration is 0.15 M, the BSA concentration is 5 μM, and the polypeptide concentration is 0.25-1 wt. %, and mixed by vortex. The mixture was added to the Multiwell Insert System (351130, BD) at 50 μL each, and left overnight in an incubator at 37 degrees (CO2 incubator for cell culture, MCO-18AIC, SANYO) with shading to prepare BSA-encapsulating hydrogels. In the incubator at 37 degrees, the Insert System was immersed in a 96-well flat bottom plate (353928, BD) with a buffer identical to the hydrogel added at 225 μL each, and the plate was shaken with a plate shaker (MICRO PLATE MIXER NS-P, AS ONE Corporation, rotation speed: ⅕ of scale) to initiate the test (0 hours). Subsequently, the fluorescence amount that leaked out over time on the flat bottom plate side was measured with a fluorescence plate reader (SpectraMax M3, Molecular Devices, LLC.). A standard curve was created with the identical fluorescently-labeled BSA, and the protein concentration was calculated from the amount of fluorescent dye that leaked out. A solution of only BSA added to the buffer (W/O SAP) was employed as the control.

[4] = Circular dichroism (CD) measurement of β sheet structure; format: physicochemical
Method: In general, the characteristics of the wavelengths observed when a substance has a β sheet structure are a positive absorption at around 197 nm and a negative absorption at around 216 nm. For this reason, focus was placed on the size of these wavelengths in the present invention, and the influence of pH on the β sheet structure was investigated.
One to ten millimolars of aqueous sodium hydroxide solutions were added to each of these aqueous polypeptide solutions to adjust the pH, and 100 mM aqueous polypeptide solutions at having pH 2 or pH 7 were created. These aqueous solutions were transferred to quartz cells having an optical path length of 0.1 cm. The CD spectrum was then measured with a spectrum polarimeter (J-805, Jasco) at wavelengths of 185-260 nm for ellipticity (millidegree). The mean residue ellipticity θ was calculated with the following formula: [θ]=(θobs/10·l·c)/r
wherein θobs represents the ellipticity measured in millidegree, l represents the cell length (cm), c represents the concentration (M), and r represents the number of amino acid residues.

[5] = Kinetic viscosity measurement with rheometer; format: physicochemical; conditions: 0.5 wt. % hydrogel, pH 7, 25 degrees
Method: A rheometer (MCR302, Anton Paar GmbH) equipped with a stainless steel parallel plate having a diameter of 25 mm with 0.3 mm gap height was employed for kinetic viscosity measurement. […] Five millimolars of aqueous sodium hydroxide solution was added to these aqueous polypeptide solutions in order to adjust the pH to prepare 0.5 wt. % hydrogels at pH 7. Subsequently, these hydrogels were quickly transferred to a rheometer set at 25 degrees, and phase angle (tan δ) was monitored over a time course. (frequency=1 Hz, distortion=10%)

[6] = hydrogel concentration 0.5 wt. %, pH 3.5
[7] = hydrogel concentration 0.5 wt. %, pH 7.4

| Substance | position of the steel ball / hydrogel state [1, 6] | position of the steel ball / hydrogel state [1, 7] | hydrogel formed (in words) ([1]; 0.5 wt. %, pH 3.5 and pH 7.4) | also measured |
| --- | --- | --- | --- | --- |
| 2C(Maltose)-(RADA)4 [Compound 8] | ◯* | X* |  | hydrogel formed (in words) ([1]; Example 4, 0.5 wt. %, pH 7.4): did not form hydrogels |
| 2C(Maltotriose)-(RADA)4 [Compound 9] | ◯ | ◯ | transparent and uniform hydrogels |  |
| 3C(Maltose)-(RADA)4 [Compound 12] | ◯ | ◯ | transparent and uniform hydrogels |  |
| (RADA)4 [Compound 1] | X* | X* |  | hydrogel formed (in words) ([1]; 1 wt. %, pH 2.0): transparent and uniform hydrogel; hydrogel formed (in words) ([1]; 1 wt. %, pH 3.5 or higher): ununiform hydrogel with clouding; position of the steel ball / hydrogel state ([1]; peptide concentration 1 wt. %, pH 2.0): ◯; position of the steel ball / hydrogel state ([1]; peptide concentration 1 wt. %, pH 3.5): Δ*; position of the steel ball / hydrogel state ([1]; peptide concentration 1 wt. %, pH 7.4): X*; position of the steel ball / hydrogel state ([1]; peptide concentration 1 wt. %, pH 11.5): X*; position of the steel ball / hydrogel state ([2]; plasma concentration 5%): X*; hydrogel formed in presence of blood plasma (in words) ([2]; plasma concentration 5-50%): clouded and insoluble matters were observed at all plasma concentrations; position of the steel ball / hydrogel state ([2]; plasma concentration 10%): X*; position of the steel ball / hydrogel state ([2]; plasma concentration 25%): Δ*; position of the steel ball / hydrogel state ([2]; plasma concentration 50%): Δ*; controlled release capability (BSA leakage speed vs solution without any polypeptide) ([3]; pH 7.4, polypeptide 0.5 wt. % or less): does not possess controlled release capability; leakage of BSA encapsulated in the hydrogel ([3]; phosphate buffer pH 7.4, 37 degrees, polypeptide 0.25-1 wt. %): leaked out in a short time; β sheet structure formation ([4]; neutral pH): formed almost no β sheet structure; molar ellipticity (CD) ([4]; pH 2, 100 mM aqueous polypeptide solution): high molar ellipticity; molar ellipticity (CD) ([4]; pH 7, 100 mM aqueous polypeptide solution): significantly reduced; rigidity of hydrogel formed [5]: a fragile hydrogel is formed, or an ununiform hydrogel that is only partially rigid is formed; phase angle (tan δ) over a time course ([5]; frequency 1 Hz, distortion 10%): large phase angle |
| (RATARAEA)2 (RATARAEARATARAEA) [Compound 16] | X* | X* | ununiform and clouded hydro gel |  |
| C(DiGlcNAc)-(RADA)4 [Compound 2] |  |  |  | controlled release capability (BSA leakage speed vs solution without any polypeptide) ([3]; pH 7.4, concentration as low as 0.25 wt. %): showing controlled release capability |
| C(Maltose)-(RADA)4-C(Maltose) [Compound 10] | ◯* | X* |  | hydrogel formed (in words) ([1]; Example 4, 0.5 wt. %, pH 7.4): did not form hydrogels |
| C(Maltotriose)-(RADA)4-C(Maltotriose) [Compound 11] | ◯ | ◯ | transparent and uniform hydrogels |  |
| C(PEG2000)-(RADA)4 [Compound 14] | X | X | uniform hydrogels were not formed |  |
